The values below come from US9801923B2, “Fusion proteins containing insulin-like growth factor-1 and epidermal growth factor and variants thereof and uses thereof” (IGF Oncology, LLC, priority 2014, dated 2017).

For one data set, the system named is L929 cells. As to the kind of experiment: 765TNFa activity assay, killing of L929 cells. As to conditions: 24 hours. The format is cell-based. On the procedure:
L929 cells were plated at 10,000 cells per well in two 96-well plates in their recommended growth medium with 2% fetal bovine serum. They were grown for 2 days at 37° C. in a 5% CO2 humidified atmosphere. In one plate, after the 2 days incubation 1 ug/ml final concentration actinomycin D was added; in the other plate no actinomycin D was added. 765TNFa was then added at a range of concentrations. Plates were incubated 24 hours more. Then cell viability was quantified with DOJINDO cell counting kit-8 according to manufacturer's instructions. […] These are even lower IC50s than are reported in the literature for TNF-alpha.

Data set [1] relates to MCF-7 tumor cells. As to the kind of experiment: in vitro cytotoxicity assay, inhibition of proliferation of MCF-7 tumor cells. In kind it is cell-based. Particulars: Homo sapiens, MCF7, read-out: IC50 (concentration needed for 50% inhibition of cell proliferation).
Method: Five-thousand MCF7 cells were plated per well in a 96-well test plate in 100 ul of rich media on day 0. A shadow plate was made for each test plate, with each well of the shadow plate containing media or 3× the intended final concentration of test agent in media in each well. As a negative control, media is used. […] After making the shadow plate, 50 ul is transferred from each well of the shadow plate to the corresponding well of the test plate to generate the final concentrations of test agent in the wells of the test plate. Cell proliferation is determined by adding Dojindo CCK-8 reagent and incubating and measuring absorbance of the dye according to the manufacturer's instructions.
In data set [2] the test system is A-431 human epithelial carcinoma cells. The data set is described as follows: in vitro proliferation inhibition of A-431 cells. In kind it is cell-based. As to conditions: 4 days with drug. On the procedure:
A-431 human epithelial carcinoma cells were seeded at 5,000 cells per well in 96-well plates and grown for 1 day. A-431 cells have abundant EGF receptors. After 1 day growth, free bendamustine and 765EGF-bendamustine were added to the plate at concentrations ranging from 200 micromolar bendamstine to 6 nM and from 20 microEq/L 765EGF-bendamustine down to 0.6 nM. The plates were incubated with drug at 37 degrees C. under a humidified 5% CO2 atmosphere for 4 days, and then DOJINDO cell counting kit-8 reagent was added to wells to read proliferation. The plates were read according to manufacturer's instruction. There was a huge difference between free bendamustine and EGF-bendamustine. […] The difference in effectiveness was more than 1000-fold expressed in terms of the concentration of bendamustine groups.

In the next data set the target is IGF receptors (Homo sapiens, UniProt P08069). As to the kind of experiment: competition binding of refolded IGF fusion proteins to IGF receptors against radioactive wild type IGF. As to conditions: Ni eluates refolded 3 hours at room temperature, read-out: approximate binding constants (KDs). On the procedure: 2 ml of each of the original Ni eluates from Example 1 was mixed with about an equal volume of 100 mM glycine, 6 M urea, pH 9.5, concentrated by ultrafiltration in a CENTRICON 3 kDa filter unit, then brought up again in that buffer and concentrated to about 420 ul. Then they were diluted to 2 mg/ml for 403IGF, 764IGF, and 765IGF, and 4 mg/ml for 784IGF and 2.4 mg/ml for 785IGF.
200 ul of each of these was mixed rapidly with 1.8 ml of refold buffer. Refold buffer was 1.4 M urea, 100 mM glycine, 0.5 M NaCl, 19% ethanol, 0.5 mM GSSG, 4 mM GSH, pH 9.5. They were refolded at room temperature for 3 hours, and then tested in a binding assay for competition binding to IGF receptors against […] radioactive wild type IGF (Perkin Elmer, Inc.) For comparison, commercial Long-R3-IGF (LR3IGF) was also tested.

Data set [3] is classed as physicochemical. An excerpt:
These smaller fragments are seen on SDS-PAGE.

The target in data set [4] is T1, type 1 IGF receptors on MCF7 cells (Homo sapiens, UniProt P08069).
T1 construct: type 1 IGF receptors that are abundant on MCF7 cells; host or cells: MCF7
The data set is described as follows: 765IGF binding assay to IGF-1 receptor on MCF7 cells (125I IGF-1 competition). Particulars: overnight at 4° C. How it is done:
Theory of assay: Radioactive ^125I labeled insulin-like growth factor-1 (IGF-1) competes with a test ligand for binding to type 1 IGF receptors that are abundant on MCF7 cells (a human breast cancer cell line) in vitro.
MCF7 cell media: 500 mL MEM, 0.01 mg/mL bovine insulin; 5 mL sodium pyruvate, 5 mL non-essential amino acids, 10 mL sodium bicarbonate, 10 mL fetal bovine serum, 5 mL penicillin/streptomycin.
MCF7 cells (ATCC HTB-22) were plated at 20,000 cells per well in a volume of 0.5 mL/well in a 48-well tissue culture plate (flat bottom with low evaporation lid) and placed in a cell culture incubator set at 37° C. with 5% CO2. After 2-3 days in culture the plates were washed 2× with 0.5 mL per well of cold binding assay buffer (100 mM Hepes-NaOH, pH 7.2; 120 mM NaCl; 5 mM KCl; 1.2 mM MgSO4; 0.1% BSA). After the final wash, 0.5 mL of binding assay buffer was added to each well and the plates are placed at 4° C. for 2 to 6 hours.
Test ligands were prepared at a concentration of 10 micromolar (long-R3-IGF) or 20 micromolar (765IGF and IGF-MTX) in 5 mM HCl in a volume of 200 ul. To determine the concentration, the molecular weight of 765IGF (9742 daltons) and long-R3-IGF (9111 daltons) are used. […]
The plates were then incubated overnight at 4° C. […] Cells were lysed with 0.5 mL 300 mM NaOH, 1% SDS and the lysates were counted on a gamma counter.

Data set [5] addresses T2, dihydrofolate reductase (DHFR) (Homo sapiens, UniProt P00374).
T2 construct: purchased Sigma-Aldrich
T2 sequence (P00374 1-187): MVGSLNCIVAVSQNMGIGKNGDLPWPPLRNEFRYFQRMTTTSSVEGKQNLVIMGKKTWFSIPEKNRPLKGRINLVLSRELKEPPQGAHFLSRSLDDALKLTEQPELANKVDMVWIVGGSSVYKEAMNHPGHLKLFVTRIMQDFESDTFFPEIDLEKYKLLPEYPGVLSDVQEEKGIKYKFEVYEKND
The data set is described as follows: inhibition of dihydrofolate reductase (Sigma-Aldrich assay kit). The format is biochemical. On the procedure: The experiments were done with the dihydrofolate reductase assay kit from Sigma-Aldrich (St. Louis, Mo., USA), according to the manufacturer's instructions. In the assay dihydrofolate reductase is mixed with pH 7.5 buffer. […] It was incubated for 30 seconds to allow inhibitor binding. Then NADPH is added to 50 uM final concentration, and then dihydrofolic acid is added to 60 uM final concentration. The reaction is monitored by measuring absorbance at 340 nm.

Data set [6] relates to MCF-7 tumor cells. Particulars: for comparison, McTavish et al., 2009; cited from earlier work.

Like-named read-outs stand apart in the source and are kept apart here.

Chain of IGF receptors (P08069 31-736 limits assumed): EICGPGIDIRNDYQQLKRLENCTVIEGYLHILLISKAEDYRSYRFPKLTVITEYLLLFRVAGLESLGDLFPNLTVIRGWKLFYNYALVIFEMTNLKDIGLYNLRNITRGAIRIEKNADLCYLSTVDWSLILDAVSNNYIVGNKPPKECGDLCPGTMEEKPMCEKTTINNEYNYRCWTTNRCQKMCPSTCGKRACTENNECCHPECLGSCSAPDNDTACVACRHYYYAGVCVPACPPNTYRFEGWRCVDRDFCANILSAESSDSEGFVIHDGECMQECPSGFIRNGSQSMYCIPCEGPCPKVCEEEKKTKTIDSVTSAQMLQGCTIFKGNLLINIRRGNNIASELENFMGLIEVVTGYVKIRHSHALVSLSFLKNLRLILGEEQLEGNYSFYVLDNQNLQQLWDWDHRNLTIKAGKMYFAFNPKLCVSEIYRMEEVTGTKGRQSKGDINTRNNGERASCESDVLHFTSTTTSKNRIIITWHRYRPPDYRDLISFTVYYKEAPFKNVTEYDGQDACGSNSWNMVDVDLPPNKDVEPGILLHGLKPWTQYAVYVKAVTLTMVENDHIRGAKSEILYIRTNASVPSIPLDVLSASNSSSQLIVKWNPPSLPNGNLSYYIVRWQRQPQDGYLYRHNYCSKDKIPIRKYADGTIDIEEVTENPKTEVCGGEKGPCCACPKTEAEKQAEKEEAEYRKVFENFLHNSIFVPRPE
Chain of IGF receptors (P08069 741-1367 partner limits assumed): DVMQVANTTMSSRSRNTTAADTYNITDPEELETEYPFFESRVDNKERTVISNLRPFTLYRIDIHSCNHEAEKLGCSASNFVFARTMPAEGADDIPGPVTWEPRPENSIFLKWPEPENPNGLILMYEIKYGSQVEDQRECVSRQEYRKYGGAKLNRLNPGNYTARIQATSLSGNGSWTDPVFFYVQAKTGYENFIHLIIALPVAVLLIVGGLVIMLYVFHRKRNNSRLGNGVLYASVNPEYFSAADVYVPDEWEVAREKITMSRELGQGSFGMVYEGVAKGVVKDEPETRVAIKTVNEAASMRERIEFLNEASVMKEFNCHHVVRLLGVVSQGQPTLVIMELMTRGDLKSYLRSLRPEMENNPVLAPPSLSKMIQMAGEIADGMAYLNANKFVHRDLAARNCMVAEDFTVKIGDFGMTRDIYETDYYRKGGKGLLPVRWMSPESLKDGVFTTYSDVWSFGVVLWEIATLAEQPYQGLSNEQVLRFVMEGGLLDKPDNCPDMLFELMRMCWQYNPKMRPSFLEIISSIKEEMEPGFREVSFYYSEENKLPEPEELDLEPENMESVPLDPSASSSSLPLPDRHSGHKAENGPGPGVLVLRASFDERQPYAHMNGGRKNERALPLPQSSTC
T1 sequence (P08069 31-736 limits assumed): as the sequence (P08069 31-736 limits assumed) above
T1 sequence (P08069 741-1367 partner limits assumed): as the sequence (P08069 741-1367 partner limits assumed) above

For the molecule “765TNFa: soluble form of tumor necrosis factor alpha fused to SEQ ID NO:1 leader, SEQ ID NO:17”, the entries for the “IC50 for killing the cells” value in the data set with L929 cells (L929 cells with 1 ug/ml actinomycin) and in the data set with L929 cells (L929 cells with no actinomycin) were “less than 79 pg/ml” and “about 70 ng/ml”, respectively.
Take `CN(Cc1cnc2nc(N)nc(N)c2n1)c1ccc(C(=O)N[C@@H](CCC(=O)O)C(=O)O)cc1` [Methotrexate, methotrexate]: in the data set on MCF-7 tumor cells [1], the IC50 is 88 nM.
Turning to `Cn1c(CCCC(=O)O)nc2cc(N(CCCl)CCCl)ccc21` [bendamustine], the “concentration above which proliferation was inhibited” value in data set [2] was “above 10 micromolar”. The same molecule showed an IC50 in data set [2] (Homo sapiens, 96 h) of around 90000 nM.

B1: 764IGF: His6-K5-IGF132 fusion protein, SEQ ID NO: 18 (protein)
chain: MVKGKHHHHHHNGKGKSKFVNQHLCGSHLVEALYLVCGDRGFYFNKPTGYGSSSRRAPQTGIVDECCFRSCDLRRLEMYCAPLKPAKSA
On to B1, for which the Kd in the data set with IGF receptors was around 100 nM.

B2: 403IGF: His6-IGF fusion protein, SEQ ID NO: 14 (protein)
chain: MTSGHHHHHHSAGVNGFVNQHLCGSHLVEALYLVCGDRGFYFNKPTGYGSSSRRAPQTGIVDECCFRSCDLRRLEMYCAPLKPAKSA
Regarding B2, in the data set with IGF receptors, the Kd is around 2 nM.

B3: IGF132: variant of IGF-1 with reduced binding to soluble IGF binding proteins, SEQ ID NO:4 (protein)
chain: FVNQHLCGSHLVEALYLVCGDRGFYFNKPTGYGSSSRRAPQTGIVDECCFRSCDLRRLEMYCAPLKPAKSA
On to B3, for which the stability to storage result in data set [3] is “breaks down to produce a significant amount of smaller molecular weight fragments”.

B4: 785IGF: mutTrx-IGF132 fusion protein, SEQ ID NO: 16 (protein)
chain: MVKQIESKTAFQEALDAAGDKLVVVDFSATWCGHCKMIKPFFHSLSEKYSNVIFLEVDVDDSQDVASESEVKSMPTFQFFKKGQKVGEFSGANKEKLEATINELVGSKSGHHHHHHSAKGFVNQHLCGSHLVEALYLVCGDRGFYFNKPTGYGSSSRRAPQTGIVDECCFRSCDLRRLEMYCAPLKPAKSA
Regarding B4, the Kd with IGF receptors was around 40 nM.

B5: LR3IGF: commercial Long-R3-IGF variant of IGF-1 (Sigma Aldrich), SEQ ID NO:5 (protein)
chain: MFPAMPLSSLFVNGPRTLCGALVDALQFVCGDRGFYFNKPTGYGSSSRRAPQTGIVDECCFRSCDLRRLEMYCAPLKPAKSEA
Turning to B5, the values for the Kd (in data set [4]; with IGF receptors) were around 3 nM and around 1 nM, respectively.

B6: LR3IGF-MTX (conjugate)
chain: MFPAMPLSSLFVNGPRTLCGALVDALQFVCGDRGFYFNKPTGYGSSSRRAPQTGIVDECCFRSCDLRRLEMYCAPLKPAKSEA
With B6, the IC50 in data set [5] (DHFR, concentration of conjugated MTX groups, read-out: IC50) is 99 nM; in data set [5] (IC50 in nEq/L divided by MTX per IGF, read-out: inhibition constant in terms of protein concentration) it was 35 nM; in the data set with MCF-7 tumor cells [6], around 400 nM.
